Assay results as given in the supplement of paper PMC10065799, “High-throughput profiling of sequence recognition by tyrosine kinases and SH2 domains using bacterial peptide display” (eLife, 2023).

Target: EPHB1 (UniProt P54762)
Experiment: phosphorylation enrichment, bacterial display (enrichment ratio); higher = better substrate or ligand; peptides without Tyr show the background
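Also: 11-residue human phosphosite peptides and single-mutation variants displayed on the E. coli surface, counted by deep sequencing, each peptide's frequency after selection divided by its frequency in the unselected input library; frequency after pTyr selection over input frequency; kinase dosed for 20-30% of maximal phosphorylation in three min.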

Chain of EPHB1 (P54762 whole entry, looked up): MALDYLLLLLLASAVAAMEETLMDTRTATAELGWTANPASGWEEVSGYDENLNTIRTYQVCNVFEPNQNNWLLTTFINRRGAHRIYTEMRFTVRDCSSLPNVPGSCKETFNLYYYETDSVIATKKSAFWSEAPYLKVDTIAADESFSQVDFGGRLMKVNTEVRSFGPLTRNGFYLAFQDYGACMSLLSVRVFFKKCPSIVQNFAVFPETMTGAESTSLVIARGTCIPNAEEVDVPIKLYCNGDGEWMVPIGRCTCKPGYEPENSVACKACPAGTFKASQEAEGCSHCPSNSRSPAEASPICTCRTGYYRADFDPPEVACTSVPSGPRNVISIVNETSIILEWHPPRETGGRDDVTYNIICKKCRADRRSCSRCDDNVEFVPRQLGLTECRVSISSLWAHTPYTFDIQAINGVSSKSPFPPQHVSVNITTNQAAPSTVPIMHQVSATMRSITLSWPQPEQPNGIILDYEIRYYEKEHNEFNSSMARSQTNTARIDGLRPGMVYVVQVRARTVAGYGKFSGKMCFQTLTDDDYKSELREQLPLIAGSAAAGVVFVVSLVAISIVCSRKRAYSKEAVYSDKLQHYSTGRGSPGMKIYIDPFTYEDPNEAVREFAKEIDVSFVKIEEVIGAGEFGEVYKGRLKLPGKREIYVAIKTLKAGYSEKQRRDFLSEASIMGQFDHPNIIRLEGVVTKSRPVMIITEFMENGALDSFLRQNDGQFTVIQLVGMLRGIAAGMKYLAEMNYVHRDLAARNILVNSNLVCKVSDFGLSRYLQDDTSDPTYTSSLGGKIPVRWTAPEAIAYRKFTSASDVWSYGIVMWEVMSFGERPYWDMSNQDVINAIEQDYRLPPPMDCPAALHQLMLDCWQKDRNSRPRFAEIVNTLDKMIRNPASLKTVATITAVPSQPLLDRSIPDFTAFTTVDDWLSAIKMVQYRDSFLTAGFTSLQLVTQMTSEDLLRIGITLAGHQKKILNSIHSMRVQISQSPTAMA

Sequence | phosphorylation enrichment
VVAHQYSFAPD [TNS3_Y601] | 0.521
GVSYIYTIDGS [DCX_Y105_R102S] | 0.618
IDPYTYTPFGS [CYP3A4_Y432_I431T] | 0.563
IDPFTYTPFGS [CYP3A4_Y432_I431T_YF] | 0.431
FDKEFYSVHNK [MET_Y1235_YF] | 0.432
QTSTDYDIRFY [CSNK2A1_Y131_L128S] | 1.22
AVLSLYASDRT [ACTA1_Y145_G148D] | 0.662
QMVGMYASSFM [AVPR2_Y124_YF] | 0.922
EEVGIYRMSGV [BCR_Y1089_V1091M] | 0.55
DNPAKYFILEN [DPP10_Y512_S517N] | 0.59
RDLTDYLMKIL [ACTA1_Y190] | 0.58
LIFVSYDDWDF [GRIN2A_Y281_S278F_YF] | 2.23
PPPPAYDDVAQ [TNK2_Y635] | 0.579
KDHPDYKFQLR [SOX10_Y171_P175L_YF] | 0.49
SSMSDYNPLEK [MYOC_Y479_I477S] | 0.501
SIKDKYVMALY [KCNH2_Y611_T613M] | 0.505
EWRSPYGLTPR [GRIN3B_Y601] | 0.413

Sequence | phosphorylation enrichment
QEKKGYFEDRR [GLUL_Y336] | 0.618
YRVAGYETQGG [TIA1_Y383] | 0.329
HNQDGYSFPSR [LDLR_Y845_YF] | 0.762
LTSVKYLLSAT [GSDMC_Y26_P23S] | 0.465
ITQRAYRRHLL [SCN1A_Y1926_I1922T] | 0.427
IVKAFYVHARA [AIPL1_Y268_R270H_YF] | 0.492
RKPDIYERLAS [MCM4_Y459] | 0.927
ENQEIYRKAFD [KPNA1_Y493_Q494R] | 0.618
HHTNEYEYDEL [TGM1_Y134_D132N] | 0.497
NQILPYIEELV [PPP2R1B_Y341_K343E] | 0.673
LKRIAYFLCLL [LGI1_Y21] | 0.64
KIKGRYEKCEP [KRT26_Y119_W118R] | 0.614
GAAMLYFPSVS [GPR143_Y177_YF] | 0.465
SVTCTYSPGLN [TP53_Y126_A129G] | 0.761
RPFSPYIIRGM [LRP5_Y1531_R1529S_YF] | 0.752
EDDIIYTQDFM [STK11_Y362_T367M] | 0.697

Target: Hck (UniProt P08631)
Sequence (P08631 whole entry, looked up): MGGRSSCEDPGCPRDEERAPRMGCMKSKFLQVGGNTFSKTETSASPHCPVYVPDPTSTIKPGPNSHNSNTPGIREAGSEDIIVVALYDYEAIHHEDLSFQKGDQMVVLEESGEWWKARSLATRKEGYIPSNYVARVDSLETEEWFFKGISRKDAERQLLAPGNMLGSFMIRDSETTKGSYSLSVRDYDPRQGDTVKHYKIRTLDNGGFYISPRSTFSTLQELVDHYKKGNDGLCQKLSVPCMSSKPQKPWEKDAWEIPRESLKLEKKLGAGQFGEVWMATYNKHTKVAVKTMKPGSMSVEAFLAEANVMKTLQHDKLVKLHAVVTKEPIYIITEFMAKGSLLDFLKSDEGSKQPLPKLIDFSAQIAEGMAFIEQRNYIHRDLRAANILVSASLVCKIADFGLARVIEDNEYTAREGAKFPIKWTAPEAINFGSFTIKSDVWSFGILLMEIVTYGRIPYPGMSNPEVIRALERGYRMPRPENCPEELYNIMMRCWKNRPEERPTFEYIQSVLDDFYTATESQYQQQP
Experiment: as above

Sequence | phosphorylation enrichment
VVAHQYSFAPD [TNS3_Y601] | 0.515
GVSYIYTIDGS [DCX_Y105_R102S] | 2.71
IDPYTYTPFGS [CYP3A4_Y432_I431T] | 3.36
IDPFTYTPFGS [CYP3A4_Y432_I431T_YF] | 1.18
FDKEFYSVHNK [MET_Y1235_YF] | 0.803
QTSTDYDIRFY [CSNK2A1_Y131_L128S] | 0.89
AVLSLYASDRT [ACTA1_Y145_G148D] | 0.538
QMVGMYASSFM [AVPR2_Y124_YF] | 1.34
EEVGIYRMSGV [BCR_Y1089_V1091M] | 5.64
DNPAKYFILEN [DPP10_Y512_S517N] | 0.392
RDLTDYLMKIL [ACTA1_Y190] | 0.551
LIFVSYDDWDF [GRIN2A_Y281_S278F_YF] | 1.1
PPPPAYDDVAQ [TNK2_Y635] | 0.439
KDHPDYKFQLR [SOX10_Y171_P175L_YF] | 0.406
SSMSDYNPLEK [MYOC_Y479_I477S] | 0.525
SIKDKYVMALY [KCNH2_Y611_T613M] | 0.59
EWRSPYGLTPR [GRIN3B_Y601] | 0.474

Sequence | phosphorylation enrichment
QEKKGYFEDRR [GLUL_Y336] | 0.792
YRVAGYETQGG [TIA1_Y383] | 0.37
HNQDGYSFPSR [LDLR_Y845_YF] | 0.748
LTSVKYLLSAT [GSDMC_Y26_P23S] | 0.466
ITQRAYRRHLL [SCN1A_Y1926_I1922T] | 0.457
IVKAFYVHARA [AIPL1_Y268_R270H_YF] | 0.488
RKPDIYERLAS [MCM4_Y459] | 4.52
ENQEIYRKAFD [KPNA1_Y493_Q494R] | 0.499
HHTNEYEYDEL [TGM1_Y134_D132N] | 0.489
NQILPYIEELV [PPP2R1B_Y341_K343E] | 0.568
LKRIAYFLCLL [LGI1_Y21] | 0.394
KIKGRYEKCEP [KRT26_Y119_W118R] | 0.546
GAAMLYFPSVS [GPR143_Y177_YF] | 0.512
SVTCTYSPGLN [TP53_Y126_A129G] | 0.595
RPFSPYIIRGM [LRP5_Y1531_R1529S_YF] | 0.719
EDDIIYTQDFM [STK11_Y362_T367M] | 0.992

Target: Fes (UniProt P07332)
Sequence (P07332 whole entry, looked up): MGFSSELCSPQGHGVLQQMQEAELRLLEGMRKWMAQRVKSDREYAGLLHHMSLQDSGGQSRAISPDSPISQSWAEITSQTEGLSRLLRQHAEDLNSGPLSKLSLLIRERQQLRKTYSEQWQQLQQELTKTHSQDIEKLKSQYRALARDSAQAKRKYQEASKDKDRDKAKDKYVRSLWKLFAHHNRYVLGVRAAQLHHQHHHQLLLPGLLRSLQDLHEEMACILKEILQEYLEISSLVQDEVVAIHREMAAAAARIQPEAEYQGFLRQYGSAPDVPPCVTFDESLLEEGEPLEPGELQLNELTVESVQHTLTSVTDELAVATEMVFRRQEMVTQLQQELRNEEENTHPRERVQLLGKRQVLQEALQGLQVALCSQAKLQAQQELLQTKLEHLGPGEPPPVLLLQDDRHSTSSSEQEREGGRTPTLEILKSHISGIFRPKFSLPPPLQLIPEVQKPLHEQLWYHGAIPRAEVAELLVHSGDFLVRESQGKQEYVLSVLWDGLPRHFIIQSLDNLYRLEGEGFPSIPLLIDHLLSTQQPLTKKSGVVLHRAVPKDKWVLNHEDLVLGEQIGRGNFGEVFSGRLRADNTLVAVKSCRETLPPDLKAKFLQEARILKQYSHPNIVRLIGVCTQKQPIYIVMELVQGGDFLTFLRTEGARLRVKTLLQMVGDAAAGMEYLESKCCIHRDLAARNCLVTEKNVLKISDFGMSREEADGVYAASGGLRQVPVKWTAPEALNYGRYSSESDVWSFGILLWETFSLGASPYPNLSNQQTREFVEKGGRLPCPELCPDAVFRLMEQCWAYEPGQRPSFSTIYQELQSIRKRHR
Experiment: as above

Sequence | phosphorylation enrichment
VVAHQYSFAPD [TNS3_Y601] | 0.736
GVSYIYTIDGS [DCX_Y105_R102S] | 1.08
IDPYTYTPFGS [CYP3A4_Y432_I431T] | 0.914
IDPFTYTPFGS [CYP3A4_Y432_I431T_YF] | 0.851
FDKEFYSVHNK [MET_Y1235_YF] | 0.947
QTSTDYDIRFY [CSNK2A1_Y131_L128S] | 1.86
AVLSLYASDRT [ACTA1_Y145_G148D] | 1.14
QMVGMYASSFM [AVPR2_Y124_YF] | 1.07
EEVGIYRMSGV [BCR_Y1089_V1091M] | 0.921
DNPAKYFILEN [DPP10_Y512_S517N] | 1.2
RDLTDYLMKIL [ACTA1_Y190] | 1.21
LIFVSYDDWDF [GRIN2A_Y281_S278F_YF] | 4.34
PPPPAYDDVAQ [TNK2_Y635] | 0.993
KDHPDYKFQLR [SOX10_Y171_P175L_YF] | 0.824
SSMSDYNPLEK [MYOC_Y479_I477S] | 0.876
SIKDKYVMALY [KCNH2_Y611_T613M] | 0.734
EWRSPYGLTPR [GRIN3B_Y601] | 0.636

Sequence | phosphorylation enrichment
QEKKGYFEDRR [GLUL_Y336] | 1
YRVAGYETQGG [TIA1_Y383] | 0.646
HNQDGYSFPSR [LDLR_Y845_YF] | 1.45
LTSVKYLLSAT [GSDMC_Y26_P23S] | 0.635
ITQRAYRRHLL [SCN1A_Y1926_I1922T] | 0.557
IVKAFYVHARA [AIPL1_Y268_R270H_YF] | 1.18
RKPDIYERLAS [MCM4_Y459] | 1.2
ENQEIYRKAFD [KPNA1_Y493_Q494R] | 1.13
HHTNEYEYDEL [TGM1_Y134_D132N] | 1.17
NQILPYIEELV [PPP2R1B_Y341_K343E] | 1.28
LKRIAYFLCLL [LGI1_Y21] | 1.53
KIKGRYEKCEP [KRT26_Y119_W118R] | 1.13
GAAMLYFPSVS [GPR143_Y177_YF] | 0.764
SVTCTYSPGLN [TP53_Y126_A129G] | 1.57
RPFSPYIIRGM [LRP5_Y1531_R1529S_YF] | 0.991
EDDIIYTQDFM [STK11_Y362_T367M] | 1.31

Target: FGFR3 (UniProt P22607)
Sequence (P22607 whole entry, looked up): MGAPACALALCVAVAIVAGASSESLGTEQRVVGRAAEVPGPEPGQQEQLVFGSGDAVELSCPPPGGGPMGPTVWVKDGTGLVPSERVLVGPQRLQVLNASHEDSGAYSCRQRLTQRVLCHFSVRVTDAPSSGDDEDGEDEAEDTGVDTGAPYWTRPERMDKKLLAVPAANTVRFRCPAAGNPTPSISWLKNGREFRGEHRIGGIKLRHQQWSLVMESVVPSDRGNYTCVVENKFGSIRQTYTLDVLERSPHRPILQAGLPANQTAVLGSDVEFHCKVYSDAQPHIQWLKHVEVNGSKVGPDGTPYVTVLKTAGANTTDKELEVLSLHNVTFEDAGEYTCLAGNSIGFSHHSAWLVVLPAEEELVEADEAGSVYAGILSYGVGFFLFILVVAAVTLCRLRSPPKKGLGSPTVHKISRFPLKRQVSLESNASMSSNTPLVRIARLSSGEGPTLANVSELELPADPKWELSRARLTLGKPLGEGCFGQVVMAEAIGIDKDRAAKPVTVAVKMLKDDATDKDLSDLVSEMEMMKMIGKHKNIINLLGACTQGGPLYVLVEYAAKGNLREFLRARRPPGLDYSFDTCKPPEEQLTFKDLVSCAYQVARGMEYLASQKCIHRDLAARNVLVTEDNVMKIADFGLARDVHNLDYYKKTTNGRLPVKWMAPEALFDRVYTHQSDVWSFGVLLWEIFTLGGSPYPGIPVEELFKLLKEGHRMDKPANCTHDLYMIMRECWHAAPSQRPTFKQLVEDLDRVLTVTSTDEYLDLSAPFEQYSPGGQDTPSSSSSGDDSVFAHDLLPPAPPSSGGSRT
Experiment: as above

Sequence | phosphorylation enrichment
VVAHQYSFAPD [TNS3_Y601] | 0.727
GVSYIYTIDGS [DCX_Y105_R102S] | 0.711
IDPYTYTPFGS [CYP3A4_Y432_I431T] | 2.25
IDPFTYTPFGS [CYP3A4_Y432_I431T_YF] | 0.523
FDKEFYSVHNK [MET_Y1235_YF] | 0.717
QTSTDYDIRFY [CSNK2A1_Y131_L128S] | 1.04
AVLSLYASDRT [ACTA1_Y145_G148D] | 0.666
QMVGMYASSFM [AVPR2_Y124_YF] | 0.782
EEVGIYRMSGV [BCR_Y1089_V1091M] | 0.612
DNPAKYFILEN [DPP10_Y512_S517N] | 0.617
RDLTDYLMKIL [ACTA1_Y190] | 0.896
LIFVSYDDWDF [GRIN2A_Y281_S278F_YF] | 2.55
PPPPAYDDVAQ [TNK2_Y635] | 0.591
KDHPDYKFQLR [SOX10_Y171_P175L_YF] | 0.633
SSMSDYNPLEK [MYOC_Y479_I477S] | 0.581
SIKDKYVMALY [KCNH2_Y611_T613M] | 0.547
EWRSPYGLTPR [GRIN3B_Y601] | 0.442

Sequence | phosphorylation enrichment
QEKKGYFEDRR [GLUL_Y336] | 0.733
YRVAGYETQGG [TIA1_Y383] | 0.352
HNQDGYSFPSR [LDLR_Y845_YF] | 1.08
LTSVKYLLSAT [GSDMC_Y26_P23S] | 0.541
ITQRAYRRHLL [SCN1A_Y1926_I1922T] | 0.48
IVKAFYVHARA [AIPL1_Y268_R270H_YF] | 0.825
RKPDIYERLAS [MCM4_Y459] | 0.798
ENQEIYRKAFD [KPNA1_Y493_Q494R] | 0.627
HHTNEYEYDEL [TGM1_Y134_D132N] | 0.813
NQILPYIEELV [PPP2R1B_Y341_K343E] | 0.781
LKRIAYFLCLL [LGI1_Y21] | 0.741
KIKGRYEKCEP [KRT26_Y119_W118R] | 1.17
GAAMLYFPSVS [GPR143_Y177_YF] | 0.736
SVTCTYSPGLN [TP53_Y126_A129G] | 0.998
RPFSPYIIRGM [LRP5_Y1531_R1529S_YF] | 0.71
EDDIIYTQDFM [STK11_Y362_T367M] | 1.25
